Laboratory results: the supplement of paper PMC10724198
± gives the standard deviation of the averaged measurements.

Key:
Saccharomyces cerevisiae [1] = assay: protein stability index of tFT-peptide fusion (C-terminal peptide) (PSI (0-1 scale)); higher = more stable (slower turnover)
Method: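 MPS profiling in S. cerevisiae of the tFT-X12 degron library: putative degron peptides plus stable controls, 12 aa, fused to the C-terminus of a sfGFP-mCherry timer. Cells are FACS-sorted into 8 mCherry/sfGFP bins and deep-sequenced. PSI runs from 0 (unstable) to 1 (stable). Backgrounds are wild type, das1Δ and doa10Δ at 30 °C, and wild type, das1Δ, cdc34-1 and cdc53-1 at 37 °C; 2-3 technical replicates each.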

Saccharomyces cerevisiae [2] = assay: as above; conditions: genetic background: wild type; temperature: 30 C
[3] = genetic background: cdc34-1, temperature: 37 C
[4] = genetic background: cdc53-1, temperature: 37 C
[5] = genetic background: das1 deletion, temperature: 30 C
[6] = genetic background: das1 deletion, temperature: 37 C
[7] = genetic background: doa10 deletion, temperature: 30 C
[8] = genetic background: wild type, temperature: 30 C
[9] = genetic background: wild type, temperature: 37 C
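Also: PSI is a weighted mean of sequencing reads over stability bins, variants kept only with over 10 reads, mCherry proximal and sfGFP distal, peptide attached via GGGS linker.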

Sequence	protein stability index (Saccharomyces cerevisiae [1]; [3])	protein stability index (Saccharomyces cerevisiae [1]; [4])	protein stability index (Saccharomyces cerevisiae [1]; [5])	protein stability index (Saccharomyces cerevisiae [1]; [6])	protein stability index (Saccharomyces cerevisiae [1]; [7])	protein stability index (Saccharomyces cerevisiae [1]; [8])	protein stability index (Saccharomyces cerevisiae [1]; [9])	protein stability index (Saccharomyces cerevisiae [2])
NYVFRIIIVLDA	0.269 ± 0.01	0.408 ± 0.11	0.267 ± 0.035	0.429 ± 0.042	0.227 ± 0.059	0.245 ± 0.011	0.349 ± 0.031	0.444 ± 0.0058
PALYLSLWFLFP	0.534 ± 0.056	0.606 ± 0.023	0.445 ± 0.043	0.603 ± 0.023	0.452 ± 0.013	0.456 ± 0.037	0.5761 ± 0.0011	0.512 ± 0.045
PAVRRLTGLMLM	0.6812 ± 0.0047	0.7493 ± 0.0057	0.612 ± 0.014	0.737 ± 0.024	0.276 ± 0.011	0.321 ± 0.0051	0.566 ± 0.022	0.413 ± 0.011
PCNVLWYSLFLF	0.487 ± 0.015	0.597 ± 0.025	0.452 ± 0.027	0.597 ± 0.018	0.175 ± 0.018	0.19 ± 0.017	0.34 ± 0.0062	0.271 ± 0.0091
PFAGRLWVTSSF	0.707 ± 0.052	0.7726 ± 0.005	0.671 ± 0.011	0.7908 ± 0.0063	0.685 ± 0.021	0.674 ± 0.022	0.7558 ± 0.0072	0.752 ± 0.035
PFYQSGGLVVVV	0.58 ± 0.024	0.63 ± 0.017	0.469 ± 0.034	0.62927 ± 0.00041	0.437 ± 0.021	0.464 ± 0.023	0.583 ± 0.029	0.21 ± 0.039
PGHICVPVLGTA	0.453 ± 0.021	0.467 ± 0.0061	0.348 ± 0.037	0.513 ± 0.0077	0.3072 ± 0.003	0.357 ± 0.027	0.517 ± 0.036	0.447 ± 0.027
PGSIGVVIAVRS	0.461 ± 0.019	0.512 ± 0.013	0.345 ± 0.044	0.574 ± 0.02	0.2863 ± 0.0007	0.363 ± 0.015	0.517 ± 0.0066	0.464 ± 0.0078
PGVWVVILRWWV	0.0876 ± 0.044	0.179 ± 0.011	0.123 ± 0.02	0.243 ± 0.035	0.0879 ± 0.0095	0.0841 ± 0.034	0.182 ± 0.011	0.152 ± 0.01
PIHILTHTYIGR	0.669 ± 0.028	0.7695 ± 0.00066	0.636 ± 0.025	0.719 ± 0.013	0.643 ± 0.014	0.664 ± 0.012	0.707 ± 0.013	0.738 ± 0.018
PILRGRPTPAIL	0.691 ± 0.031	0.731 ± 0.013	0.662 ± 0.018	0.7426 ± 0.0046	0.681 ± 0.018	0.668 ± 0.023	0.7026 ± 0.0044	0.708 ± 0.021
PLLVVPVPRALY	0.675 ± 0.082	0.72 ± 0.0074	0.626 ± 0.011	0.733 ± 0.018	0.242 ± 0.0057	0.281 ± 0.013	0.491 ± 0.038	0.382 ± 0.021
PLYFSVFSLLFL	0.522 ± 0.03	0.556 ± 0.048	0.489 ± 0.015	0.631 ± 0.025	0.478 ± 0.026	0.41 ± 0.021	0.539 ± 0.013	0.473 ± 0.012
PPLLLFLSLAFL	0.322 ± 0.02	0.407 ± 0.012	0.285 ± 0.027	0.449 ± 0.015	0.239 ± 0.012	0.271 ± 0.028	0.441 ± 0.009	0.381 ± 0.054
PPPLPPPSPSRP	0.66 ± 0.024	0.7072 ± 0.0012	0.677 ± 0.02	0.7025 ± 0.0061	0.695 ± 0.026	0.6727 ± 0.0031	0.68331 ± 0.00024	0.421 ± 0.0055
PPPPPPLPSSFP	0.679 ± 0.024	0.749 ± 0.0084	0.645 ± 0.009	0.7094 ± 0.0028	0.666 ± 0.033	0.655 ± 0.01	0.7063 ± 0.0068	0.449 ± 0.026
PPPYPPPPARSL	0.6336 ± 0.00079	0.6951 ± 0.0027	0.673 ± 0.016	0.6884 ± 0.0056	0.6825 ± 0.0033	0.689 ± 0.022	0.6823 ± 0.0034	0.5 ± 0.014

Sequence	protein stability index (Saccharomyces cerevisiae [1]; [3])	protein stability index (Saccharomyces cerevisiae [1]; [4])	protein stability index (Saccharomyces cerevisiae [1]; [5])	protein stability index (Saccharomyces cerevisiae [1]; [6])	protein stability index (Saccharomyces cerevisiae [1]; [7])	protein stability index (Saccharomyces cerevisiae [1]; [8])	protein stability index (Saccharomyces cerevisiae [1]; [9])	protein stability index (Saccharomyces cerevisiae [2])
PPRPLHPPCRPP	0.64 ± 0.021	0.6975 ± 0.00072	0.66 ± 0.033	0.6943 ± 0.0015	0.659 ± 0.024	0.657 ± 0.013	0.688 ± 0.011	0.702 ± 0.013
PPSPPLPPPSPF	0.671 ± 0.013	0.773 ± 0.019	0.69 ± 0.0097	0.742 ± 0.041	0.694 ± 0.036	0.67 ± 0.018	0.707 ± 0.016	0.34 ± 0.046
PPSPPPPPPSPF	0.695 ± 0.031	0.7371 ± 0.0055	0.683 ± 0.0043	0.7378 ± 0.0022	0.721 ± 0.031	0.679 ± 0.033	0.719 ± 0.034	0.304 ± 0.025
PRHERPPRDNGH	0.674 ± 0.041	0.72232 ± 0.00022	0.655 ± 0.011	0.73 ± 0.013	0.6522 ± 0.0063	0.654 ± 0.025	0.702 ± 0.022	0.709 ± 0.025
PRPSPPLPPPSS	0.665 ± 0.082	0.712 ± 0.011	0.643 ± 0.027	0.739 ± 0.019	0.673 ± 0.032	0.677 ± 0.021	0.688 ± 0.017	0.4726 ± 0.0028
PRRVTVPGVPPL	0.672 ± 0.018	0.736 ± 0.033	0.669 ± 0.035	0.737 ± 0.014	0.643 ± 0.01	0.66 ± 0.01	0.7039 ± 0.0025	0.71 ± 0.014
PRSLHVLSRFLP	0.692 ± 0.06	0.7371 ± 0.0014	0.651 ± 0.017	0.763 ± 0.037	0.599 ± 0.048	0.606 ± 0.031	0.712 ± 0.02	0.691 ± 0.018
PSRRLRHFATSP	0.623 ± 0.058	0.68 ± 0.021	0.736 ± 0.037	0.6646 ± 0.0047	0.747 ± 0.038	0.703 ± 0.0095	0.6412 ± 0.00013	0.741 ± 0.023
PTFSPSLPPPRS	0.632 ± 0.03	0.715 ± 0.012	0.678 ± 0.027	0.703 ± 0.02	0.712 ± 0.027	0.694 ± 0.022	0.67608 ± 0.00018	0.3693 ± 0.0019
PVTAVYFVLYIW	0.134 ± 0.0025	0.231 ± 0.017	0.177 ± 0.032	0.332 ± 0.019	0.143 ± 0.01	0.167 ± 0.026	0.298 ± 0.035	0.251 ± 0.03
PYLSAPLVATLS	0.378 ± 0.014	0.424 ± 0.025	0.274 ± 0.057	0.474 ± 0.0082	0.234 ± 0.012	0.28 ± 0.045	0.426 ± 0.0049	0.3853 ± 0.0035
QDQWINTSLELS	0.677 ± 0.018	0.759 ± 0.0081	0.676 ± 0.039	0.7465 ± 0.0027	0.685 ± 0.015	0.68 ± 0.035	0.711 ± 0.024	0.751 ± 0.056
QLIDVGLLNCAA	0.499 ± 0.044	0.557 ± 0.033	0.435 ± 0.03	0.611 ± 0.052	0.412 ± 0.011	0.45 ± 0.027	0.5616 ± 0.0023	0.498 ± 0.079
QWTVRNQGVMQR	0.699 ± 0.018	0.743 ± 0.0096	0.652 ± 0.012	0.754 ± 0.016	0.65 ± 0.036	0.681 ± 0.051	0.721 ± 0.026	0.73 ± 0.017
QYRLMQKKIVNI	0.644 ± 0.022	0.743 ± 0.048	0.647 ± 0.015	0.718 ± 0.014	0.119 ± 0.013	0.147 ± 0.024	0.253 ± 0.015	0.229 ± 0.059
RAEASFFLPKVG	0.675 ± 0.046	0.711 ± 0.0076	0.668 ± 0.033	0.732 ± 0.016	0.41 ± 0.013	0.446 ± 0.01	0.6398 ± 0.0037	0.435 ± 0.07
